In US12227551B2, “Membrane bound IL12 compositions and methods for tunable regulation” (Obsidian Therapeutics, Inc., priority 2018, dated 2025):

Key:
CD19+ Nalm6 tumors [1] = test: Kaplan-Meier animal survival (Example 10; Table 35); type: in vivo, NSG mice
Protocol: (§1) To test in vivo anti-tumor activity, experiments were performed in NSG mice. Nalm6 cells were transfected with Redifect Red-Fluc (Perkin Elmer) under selection using Puromycin for ˜2 months to generate a line that stably expresses the luciferase reporter; thereafter named Nalm6-Luc. Ten days before tumor implantation, Nalm6-Luc cells were thawed and cultured in puromycin-containing media. On day 0, cells were counted, resuspended in PBS and injected into NSG mice via tail vein. On day 6, mice were imaged for bioluminescent intensity (BLI) and sorted into groups based on their tumor size ensure that all groups had the same sized tumors. Human T cells were transduced with one of the following constructs as shown in the study design in Table 33:
Percent survival was also measured for each group during the course of the experiment and the following numbers were obtained as shown in Table 35: […]

T cells = test: Percentage of CAR positive cells after 10 days expansion (Example 7); type: cell-based; settings: T cells expanded for 10 days
[2] = Body weight and clinical signs of GVHD, Nalm6-Luc NSG model (Example 9; Table 30); type: in vivo, NSG mice; settings: in g (unit assumed)
Protocol: as §1, with “The study was designed to determine if membrane bound IL12 (mbIL12) expressed on CAR-T cells via a CD8 TM domain and CD8 Hinge Region promotes CAR T cell expansion in cis, promotes non-CAR-T cell expansion in trans, and/or increases in vivo CAR T cell efficacy against CD19+ Nalm6 tumors. To” for “To”, “ensuring” for “ensure”, “27:” for “33:”
The amount of body weight loss appeared to correlate with the levels of plasma IL12 detected at earlier timepoints (Table 31).

CD19+ Nalm6 tumors [3] = test: Kaplan-Meier animal survival, Nalm6-Luc NSG model (Example 9; Table 29); type: in vivo, NSG mice
Protocol: as §1, with “The study was designed to determine if membrane bound IL12 (mbIL12) expressed on CAR-T cells via a CD8 TM domain and CD8 Hinge Region promotes CAR T cell expansion in cis, promotes non-CAR-T cell expansion in trans, and/or increases in vivo CAR T cell efficacy against CD19+ Nalm6 tumors. To” for “To”, “ensuring” for “ensure”, “27:” for “33:”
Percent survival was also measured for each group during the course of the experiment and the following numbers were obtained as shown in Table 29: […]

Nalm-6 cells = test: 48 hour cytotoxicity assay, T cells co-cultured with Nalm-6 NucRed cells, Incucyte (Example 7; Table 21); type: cell-based
Protocol: For cytotoxicity assays, T cells were thawed and co-cultured with Nalm-6 cells (stably expressing NucRed®) at different T cells to Nalm-6 cell culture ratios. Target cell viability was determined by measuring cellular fluorescence over time using an Incucyte assay and the results are shown in Table 21.

[4] = test system: CAR+ T cells and GFP+ T cells; test: CAR-T and GFP+ T cell expansion in peripheral blood by flow cytometry (Example 10; Table 37); type: in vivo, NSG mice; design: unit not given here; settings: day 14 post T cell transfer, 1 million CAR+ T cells
Protocol: (§2) Next, holding total CAR+ T cell dose constant at 1 million cells per animal, transduced T cells were intravenously infused into mice on day 7. Tumors were monitored in mice using BLI and the mean of the Total Flux (photons/second) was calculated for each group as an indicator of tumor burden (Table 34). In order to track the trans effect of IL12 expressing CART cells on that lack expression of IL12, 10 million GFP+ T cells (negative for IL12) were co-infused with the IL12-expressing CAR+ T cells, and peripheral blood draws taken over time to evaluate the effect of IL12 on phenotypic changes in GFP+ T cells by flow cytometry analysis.
Thus, anti-tumor efficacy (Table 34) appears to correlate with CAR-T cell expansion.

[5] = Plasma IL12 and IFNgamma levels (Example 10; Table 36); type: in vivo, NSG mice; settings: day 14 post T cell transfer; 1 million CAR+ T cells
Protocol: as §1
Thus, anti-tumor efficacy (Table 34) appears to correlate with plasma IL12 and IFNgamma levels.

CD19+ Nalm6 tumors [6] = test: Nalm6-Luc tumor burden by BLI, mean total flux, NSG mice given CAR-T cells (Example 9; Table 28); type: in vivo
Protocol: as §1, with “The study was designed to determine if membrane bound IL12 (mbIL12) expressed on CAR-T cells via a CD8 TM domain and CD8 Hinge Region promotes CAR T cell expansion in cis, promotes non-CAR-T cell expansion in trans, and/or increases in vivo CAR T cell efficacy against CD19+ Nalm6 tumors. To” for “To”, “ensuring” for “ensure”, “27:” for “33:”
as §2, with “constant at either 300,000 or 1 million” for “constant at 1 million”, “burden (Table 28). In order” for “burden (Table 34). In order”, “cells on T cells that lack” for “cells on that lack”, “of IL12, 5 million GFP+” for “of IL12, 10 million GFP+”

B1: OT-001356: CD19 CAR; stop; IRES; secreted IL12 (p40 23-328; (G4S)3; p35 57-253); nucleic acid SEQ ID NO: 482 (protein)
chain: IWELKKDVYVVELDWYPDAPGEMVVLTCDTPEEDGITWTLDQSSEVLGSGKTLTIQVKEFGDAGQYTCHKGGEVLSHSLLLLHKKEDGIWSTDILKDQKEPKNKTFLRCEAKNYSGRFTCWWLTTISTDLTFSVKSSRGSSDPQGVTCGAATLSAERVRGDNKEYEYSVECQEDSACPAAEESLPIEVMVDAVHKLKYENYTSSFFIRDIIKPDPPKNLQLKPLKNSRQVEVSWEYPDTWSTPHSYFSLTFCVQVQGKSKREKKDRVFTDKTSATVICRKNASISVRAQDRYYSSSWSEWASVPCSGGGGSGGGGSGGGGSRNLPVATPDPGMFPCLHHSQNLLRAVSNMLQKARQTLEFYPCTSEEIDHEDITKDKTSTVEACLPLELTKNESCLNSRETSFITNGSCLASRKTSFMMALCLSSIYEDLKMYQVEFKTMNAKLLMDPKRQIFLDQNMLAVIDELMQALNFNSETVPQKSSLEEPDFYKTKIKLCILLHAFRIRAVTIDRVMSYLNASGS
- Kaplan-Meier Analysis of Animal Survival (percent survival) (CD19+ Nalm6 tumors [1]; day 0 post tumor implant): 100%
- Kaplan-Meier Analysis of Animal Survival (percent survival) (CD19+ Nalm6 tumors [1]; day 41 post tumor implant): 100%
- Percentage of CAR positive cells (T cells): 45.3%
- body weight ([2]; day 6 post tumor implant (before T cell infusion)): 19.6125
- body weight ([2]; day 13 post tumor implant): 20.5125
- body weight ([2]; day 20 post tumor implant): 20.5875
- body weight ([2]; day 27 post tumor implant): 22.2125
- body weight ([2]; day 34 post tumor implant): 21.8875
- body weight ([2]; day 41 post tumor implant): 19.93
- Proportion of survival post tumor implant (CD19+ Nalm6 tumors [3]; day 0 post tumor implant): 100%
- Proportion of survival post tumor implant (CD19+ Nalm6 tumors [3]; day 41 post tumor implant): 50.0%
- Proportion of survival post tumor implant (CD19+ Nalm6 tumors [3]; day 43 post tumor implant): 50.0%
- Average Total Nalm6-NucRed Area after 48 hour at E:T ratio of 3:1 (Nalm-6 cells; E:T 3:1, 48 hour): 33,079
- Average Total Nalm6-NucRed Area after 48 hour at E:T ratio of 10:1 (Nalm-6 cells; E:T 10:1, 48 hour): 32,236
- Cis Effect: Numbers of CAR+ Cells on Day 14 [4]: 1777
- Trans Effect: Numbers of GFP+ Cells on Day 14 [4]: 99
- Day 14 Plasma IFNgamma Levels [5]: 13,344 pg/mL
- Day 14 Plasma IL10 Levels [5]: 6.9 pg/mL
- Day 14 Plasma IL 12 Levels [5]: 2,434 pg/mL
- Mean Total Flux (Nalm-6 Tumor Burdon) (CD19+ Nalm6 tumors [6]; day 6 post tumor implant, day −1 post T cell transfer (before infusion), cell dose not given): 1069500 photons/second
- Mean Total Flux (Nalm-6 Tumor Burdon) (CD19+ Nalm6 tumors [6]; day 13 post tumor implant, day 6 post T cell transfer): 17363750 photons/second
- Mean Total Flux (Nalm-6 Tumor Burdon) (CD19+ Nalm6 tumors [6]; day 20 post tumor implant, day 13 post T cell transfer): 555500 photons/second
- Mean Total Flux (Nalm-6 Tumor Burdon) (CD19+ Nalm6 tumors [6]; day 27 post tumor implant, day 20 post T cell transfer): 769125 photons/second
- Mean Total Flux (Nalm-6 Tumor Burdon) (CD19+ Nalm6 tumors [6]; day 34 post tumor implant, day 27 post T cell transfer): 743125 photons/second
- Mean Total Flux (Nalm-6 Tumor Burdon) (CD19+ Nalm6 tumors [6]; day 41 post tumor implant, day 34 post T cell transfer): 716750 photons/second
